Results published in doi:10.1101/2021.12.16.472899 (bioRxiv, 2021).

T1: NdhD (Arabidopsis thaliana (endogenous in the …, UniProt P26288 1-500))
T1 sequence (looked up): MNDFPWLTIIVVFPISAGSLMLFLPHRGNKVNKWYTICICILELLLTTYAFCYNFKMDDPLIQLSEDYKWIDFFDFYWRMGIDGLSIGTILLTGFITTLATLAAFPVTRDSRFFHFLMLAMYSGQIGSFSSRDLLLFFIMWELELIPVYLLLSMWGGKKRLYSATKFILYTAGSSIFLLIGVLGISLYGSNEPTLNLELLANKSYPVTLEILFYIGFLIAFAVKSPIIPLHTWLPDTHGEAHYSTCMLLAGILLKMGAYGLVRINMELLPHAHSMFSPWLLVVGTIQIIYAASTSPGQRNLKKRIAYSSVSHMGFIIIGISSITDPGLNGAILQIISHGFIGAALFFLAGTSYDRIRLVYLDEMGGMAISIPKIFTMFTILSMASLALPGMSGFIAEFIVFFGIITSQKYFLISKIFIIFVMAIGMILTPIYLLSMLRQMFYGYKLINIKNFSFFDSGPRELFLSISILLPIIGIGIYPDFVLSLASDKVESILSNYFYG

T2: PnsB1 (Arabidopsis thaliana (endogenous in the …, UniProt Q9S9N6 45-461))
T2 sequence (looked up): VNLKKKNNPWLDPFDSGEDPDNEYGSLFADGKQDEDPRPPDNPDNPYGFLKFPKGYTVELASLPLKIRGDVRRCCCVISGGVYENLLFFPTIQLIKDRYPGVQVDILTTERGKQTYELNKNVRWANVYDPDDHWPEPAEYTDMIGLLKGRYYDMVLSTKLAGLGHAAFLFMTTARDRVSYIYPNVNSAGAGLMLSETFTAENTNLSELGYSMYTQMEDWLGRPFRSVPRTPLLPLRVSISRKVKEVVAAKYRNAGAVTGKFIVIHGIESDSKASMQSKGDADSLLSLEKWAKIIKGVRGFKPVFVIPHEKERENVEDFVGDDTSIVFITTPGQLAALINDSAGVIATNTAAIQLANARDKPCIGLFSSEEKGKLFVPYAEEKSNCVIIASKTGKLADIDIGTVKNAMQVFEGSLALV

T3: Lhca6 (Arabidopsis thaliana (endogenous in the …, UniProt Q8LCQ4 34-270))
T3 sequence (looked up): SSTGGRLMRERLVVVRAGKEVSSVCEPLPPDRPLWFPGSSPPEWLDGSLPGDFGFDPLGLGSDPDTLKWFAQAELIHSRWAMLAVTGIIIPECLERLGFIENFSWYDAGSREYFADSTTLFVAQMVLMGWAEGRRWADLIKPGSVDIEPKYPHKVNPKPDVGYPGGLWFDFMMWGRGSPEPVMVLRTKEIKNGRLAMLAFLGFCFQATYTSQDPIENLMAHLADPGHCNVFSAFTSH

T4: PnsL1 (Arabidopsis thaliana (endogenous in the …, UniProt O80634 81-238))
T4 sequence (looked up): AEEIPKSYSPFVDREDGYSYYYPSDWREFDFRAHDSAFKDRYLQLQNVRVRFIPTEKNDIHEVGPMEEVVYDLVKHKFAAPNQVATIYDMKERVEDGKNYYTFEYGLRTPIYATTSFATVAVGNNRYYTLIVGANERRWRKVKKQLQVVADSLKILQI

T5: PnsL2 (Arabidopsis thaliana (endogenous in the …, UniProt Q9XI73 69-190))
T5 sequence (looked up): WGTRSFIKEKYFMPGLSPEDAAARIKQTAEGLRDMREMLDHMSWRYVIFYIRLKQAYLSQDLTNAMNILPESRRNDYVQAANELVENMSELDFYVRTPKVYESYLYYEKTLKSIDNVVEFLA

T6: Lhca5 (Arabidopsis thaliana (endogenous in the …, UniProt Q9C639 33-256))
T6 sequence (looked up): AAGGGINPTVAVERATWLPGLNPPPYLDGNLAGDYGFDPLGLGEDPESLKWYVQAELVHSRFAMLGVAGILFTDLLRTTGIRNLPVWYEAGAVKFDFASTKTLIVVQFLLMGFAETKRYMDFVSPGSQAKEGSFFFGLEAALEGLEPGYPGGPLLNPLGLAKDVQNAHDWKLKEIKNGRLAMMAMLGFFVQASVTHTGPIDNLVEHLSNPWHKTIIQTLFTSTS

B1: PnsB5 (natural protein, UniProt Q9FG89 49-212, looked up)
chain: AAGLSQIEPDINEDPIGQFETNSIEMEDFKYGYYDGAHTYYEGEVQKGTFWGAIADDIAAVDQTNGFQGLISCMFLPAIALGMYFDAPGEYLFIGAALFTVVFCIIEMDKPDQPHNFEPQIYKLERGARDKLINDYNTMSIWDFNDKYGDVWDFTIEKDDIATR
B2: PnsB4 (natural protein, UniProt Q8RXS1 25-175, looked up)
chain: QNSGPNHGYWLSKNVNEKRERNLMRGSLCVRKALPHDLPLMAVMVQQIEGMRDIITEKHVWHLSDKAIKNVYMFYIMFTCWGCLYFGSAKDPFYDSEEYRGDGGDGTGYWVYETQEDIEEKARAELWREELIEEIEQKVGGLRELEEAVTK

Legend:
Assay in all cases: cryo-EM structure
NdhD = molecular target: T1, NdhD
PnsB1 = molecular target: T2, PnsB1
Lhca6 = molecular target: T3, Lhca6
PnsL1 = molecular target: T4, PnsL1
PnsL2 = molecular target: T5, PnsL2
PnsB5 = molecular target: B1
Lhca5 = molecular target: T6, Lhca5
NdhF = NdhF (Arabidopsis thaliana (endogenous in the …, UniProt P56752 1-746))
PnsB4 = molecular target: B2

NdhF (Arabidopsis thaliana, sequence (P56752 whole entry): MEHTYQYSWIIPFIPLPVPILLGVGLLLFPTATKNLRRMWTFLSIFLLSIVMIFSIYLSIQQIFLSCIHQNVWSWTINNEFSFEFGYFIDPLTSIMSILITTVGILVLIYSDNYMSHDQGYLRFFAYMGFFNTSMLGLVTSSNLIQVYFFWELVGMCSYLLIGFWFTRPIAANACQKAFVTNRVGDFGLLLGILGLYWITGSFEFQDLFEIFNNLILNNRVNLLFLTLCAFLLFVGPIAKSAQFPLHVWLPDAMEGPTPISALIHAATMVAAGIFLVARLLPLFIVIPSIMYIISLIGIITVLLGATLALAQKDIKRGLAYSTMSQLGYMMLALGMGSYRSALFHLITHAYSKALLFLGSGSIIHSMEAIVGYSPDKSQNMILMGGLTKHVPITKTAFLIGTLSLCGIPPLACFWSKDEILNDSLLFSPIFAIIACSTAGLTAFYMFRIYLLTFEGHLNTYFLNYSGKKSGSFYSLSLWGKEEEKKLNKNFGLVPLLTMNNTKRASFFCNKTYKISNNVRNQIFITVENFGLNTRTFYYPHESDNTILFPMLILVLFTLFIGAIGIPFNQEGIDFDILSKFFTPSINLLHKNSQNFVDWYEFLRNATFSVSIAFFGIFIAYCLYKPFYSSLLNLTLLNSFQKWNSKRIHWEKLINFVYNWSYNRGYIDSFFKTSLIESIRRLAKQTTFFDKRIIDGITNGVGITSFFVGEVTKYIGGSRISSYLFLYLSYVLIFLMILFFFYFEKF

Row | Binder | binding result (NdhD) | binding result (PnsB1) | binding result (PnsL1) | binding result (PnsL2) | also measured
1 | B1 | binds | binds |  |  | binding result (Lhca6): binds
2 | NdhC (natural protein, UniProt P56751 1-120, looked up) MFLLYEYDIFWAFLLISSAIPVLAFLISGVLSPIRKGPEKLSSYESGIEPIGDAWLQFRIRYYMFALVFVVFDVETVFLYPWAMSFDVLGVSAFIEAFIFVLILILGLVYAWRKGALEWS |  |  | binds | binds | 
3 | B2 | binds | binds |  |  | binding result (PnsB5): binds
4 | NdhE (natural protein, UniProt P26289 1-101, looked up) MILEHVLVLSAYLFLIGLYGLITSRNMVRALMCLELILNAVNMNFVTFSDFFDNSQLKGEIFCIFVIAIAAAEAAIGLAIVSSIYRNRKSIRINQSTLLNK |  |  | binds | binds | 
5 | Lhca1 (natural protein, UniProt Q01667 36-241, looked up) AGNVGRIRMAAHWMPGEPRPAYLDGSAPGDFGFDPLGLGEVPANLERYKESELIHCRWAMLAVPGILVPEALGYGNWVKAQEWAALPGGQATYLGNPVPWGTLPTILAIEFLAIAFVEHQRSMEKDPEKKKYPGGAFDPLGYSKDPKKLEELKVKEIKNGRLALLAFVGFCVQQSAYPGTGPLENLATHLADPWHNNIGDIVIPFN |  |  |  |  | binding result (Lhca5): binds
6 | PnsL3 (natural protein) not shown | binds |  |  |  | binding result (NdhF): binds; binding result (PnsB4): binds
